Test results reported in the DeepSol protein solubility set.

Assay: soluble on expression in E. coli; label from the status in PepcDB or PDB records

Sequence	soluble on expression in E. coli
METRRRSSRLQQQTTSDLNAREEPQPSEPPVKRARGAKKNEAPSTAPMPPKTTKKSTKPSRKQGSPIEAELDEMGFELENEEEAEIVVQKSKKNGRKLVKIDENLRISAENGSKSSNFLEENRMEIDEKPGNLAKKSSKNGSRVVKSDEKSENLVQSVPKSTTNGSKVAIIEDDPEIRAENGVKSSKSDEKPDFSAQNGSKLAQNAPNRISRPRRSVTTAKKVSYVPSDDQLELSSSSSELESSSEDEDTEIRPKTGSKIAKKREKSFKISESESSSESPDDESEASEASEDPSIPGPSEPRKRRKIQRKSTLSSGGATTKDLHWPKCSKASIARKTGNPGSKNAAKKPAKSSLRMAQKQKPDQPWKKNLKDYETDRKLAKGERRMLEYRHVAHAYVARGKIEEITYDEAYKLHEMMKKAYFAGRSLLDAAVLDPVEFEKSQKNVKKSEKNDEKNTAGDSSSSEDEWEEMEHFQPPIIDDNIEVSIDHEGGGGDDGEEVVKDWWAIYLRQEINRKIREMWENTHKLLFCLLRGLELTTRLVVNVRAIPRRWDKTQQKELQNELSKFRELSRSRSTTPGEKSLEIQEKSGEKSQKPAKKGQKSEKKAAKKVVVEERNYWVEYWQPREKRWICVDPLHKSVDEPLSIHEHSASPISYVFAIDNKQGICEVSQRYAMDCVKQDFRRRRTNPKWVAWTLFLPPFAANSERKKWEMMQMREDLVKRPLPTVMSEYKNHPLYALEKDLLKFEAIYPPPATQKPLGQIRGHNVYPRSTVFTLQGENNWLKLARSVKIGEKPYKIVKARPDPRIPVEDREDKFLDVYGYWQTEKYRRPPLKNGKIPHNEYGNVYMFNENMCPLDCTYLKLSGLVQISRKLGKQCIPAVVGWAFDGGFTHPVIDGAIVLEKDAIDFINAWEKLESGRAEKEEKQRVEKIHENWKKLIKGMLRLAYVRKQFGHPAAEKPTKRQKIGGKTEEIEENEGGAGPPSSVDHITDNTEQITPMHGFSLDDFINKKK	soluble
NATQINEELYRLLEDTEILNQEITEGLLKGFEVPDAGVAIQLSKRDVVYPARILIIVLSEMWRFGLTKQSESFLAQVLTTIQKVVTQLKGNDLIPSGVFWLANVRELYSFVVFALNSILTEETFKNGMTDEEYKEYVSLVTELKDDFEALSYNIYNIWLKKLQKQLQKKAINAVVISESLPGFSAGETSGFLNKIFANTEEYTMDDILTFFNSIYWCMKSFHIENEVFHAVVTTLLNYVDAICFNELIMKRNFLSWKRGLQLNYNVTRLEEWCKTHGLTDGTECLQHLIQTAKLLQVRKYTIEDIDILRGICYSLTPAQLQKLISQYQVADYESPIPQEILRYVADIVKKEAALSSSGNDSKGHEHSSSIFITPETGPFTDPFSLIKTRKFDQVEAYIPAWLSLPSTKRIVDLVAQQVV	soluble
MGSDKIHHHHHHMKIAVTGKGGVGKSTIVGMLARALSDEGWRVMAIDADPDANLASAIGVPAERLSALLPISKMTGLARERTGASETTGTHFILNPRVDDIPEQFCVDHAGIKLLLMGTVNHAGSGCVCPEHALVRTLLRHILTKRKECVLIDMEAGIEHFGRGTIEAVDLLVIVIEPGSRSLQTAAQIEGLARDLGIKTICHIANKLASPVDVGFILDRADQFDLLGSIPFDSAIQAADQAGLSCYDLSPACRDKAHALMAALLERVGPTQGVS	not soluble
MKQGTMNILFFVLKTKLLKNGEAPVLMRITINGDYDDVRIQRSVPLNLWNAAKGCSKGRDRASVALNAYIAELHARALEKHKELVLEQALITPKLILKRVFGKDTEMRTLLGTMREGIKEMETLAGIDYSPVTINRYKNVVKKLQLLIPSYYGKEDVTFHELTPEFIRAFDIYLKTEAGLCRNTIVRYMKCFKKFTNMALAKEWMRKNPFYGYKMEQDETDPVFLTYDELQTVMKKKFTIPRLELVRDVFVFACFTGLAFSDVASLNKENLVQDNLGDWWIRKGRVKLEHRRKASSISNIPLLPVPLAILEKYKEHPTCIKKGCCLPVMCNQKMNSYLKEIADFCGIKKNLTTHVARHTFGTTVTLANNVPLQDVSVMLGHASTRMTQHYARVMNSSLKEAMNTVKERLAQ	not soluble
GPGSMSAAACSWRHTEWTPYEVLNVPPSAPIGDIRAAFKCMALHTHPDKATVTTSARRASGSGATSCSEFPVSFHIVKEASEMLLDPYLRAAYDAARSQALTREVGAISDTYSLMDDFVRVRMDGDESDRQRVHVYQRECRCGGVYEVAVFPEAPAGSGEDEDVPLTYSARTLRCECDSCSLVVEVVA	soluble
MRVRNRKGATELLEANPQYVVLNPLEAKAKWRDLFGNDNPIHVEVGSGKGAFVSGMAKQNPDINYIGIDIQKSVLSYALDKVLEVGVPNIKLLWVDGSDLTDYFEDGEIDRLYLNFSDPWPKKRHEKRRLTYKTFLDTFKRILPENGEIHFKTDNRGLFEYSLVSFSQYGMKLNGVWLDLHASDFEGNVMTEYEQKFSNKGQVIYRVEAEF	soluble
MSLNSKKETINIGCSLPLTGEGANYGRSVKEGVDLAIEEINQSEMFDLPLKVIYEDDKMDPREGVNAINKLITADNVPIIIGPFGSSITLAVAPIANKNKVVLLGASATADNIKDAGDYIFRITPPNSKQGNDVASFCFNSLNSKKAAIIYQTNDYGTTLKTAFESEYLKLGGEVLIVEGVDLGNKDFKTQILKIKSKQVDVVFFPLHVAESGNFLKQSKELGLNVKFISCDGAMVDDLLKLAGNAAEGTYYTSLALAYGMNDSLINSFNTNFKKKYNKEPDVYAAYYYEVTYILAHALKKANGNIGQIKEILYSINGENAYNGITGLTSFDTYGEVDKSFSIYVVSNNKFSLFKEGHHHHHH	soluble
LLEIDFAELTLEEIIGIGGFGKVYRAFWIGDEVAVKAARHDPDEDISQTIENVRQEAKLFAMLKHPNIIALRGVCLKEPNLCLVMEFARGGPLNRVLSGKRIPPDILVNWAVQIARGMNYLHDEAIVPIIHRDLKSSNILILQKVENGDLSNKILKITDFGLAREWHRTTKMSAAGAYAWMAPEVIRASMFSKGSDVWSYGVLLWELLTGEVPFRGIDGLAVAYGVAMNKLALPIPSTCPEPFAKLMEDCWNPDPHSRPSFTNILDQLTTI	soluble
GPLGSTRAKTQEEIKREEEQAIDEVLKIEFLELALGYQLISLADMKQGGDLLERIRGIRKKIASDYGFLMPQIRIRDNLQLPPTHYEIKLKGIVIGEGMVMPDKFLAMNTGFVNREIEGIPTKEPAFGMDALWIDAKNKEEAIIQGYTIIDPSTVIATHTSELVKKYAEDFITKDEVKSLLERLAKDYPTIVEESKKIPTGAIRSVLQALLHEKIPIKDMLTILETITDIAPLVQNDVNILTEQVRARLSRVITNAFKSEDGRLKFLTFSTDSEQFLLNKLRENGTSKSLLLNVGELQKLIEGVSEEAMKVLQKGIAPVILIVEPNLRKALSNQMEQARIDVVVLSHAELDPNSNFEALGTIHIN	soluble
SGDKPPGFRGSRDWIGCVEASLCLAHFGGPQGRLCHVPRGVGLHGEVERLYSHFAGGGGPVMVGGDADARSKALLGVCVGSGTEAYVLVLDPHYWGTPKSPSELQAAGWVGWQEVSAAFDPNSFYNLCLTSLSSQQQQRTLD	soluble
MLEEEQALLEKVVETLSNDIEEKEEKIEKLRRSYTNGNGALANIYEDYRSGFKSGIGARPGR	not soluble
MRDVHSISAMNLRDVLSIPEVKQGQVIGKKIPATLGEDGMNVLGEPIKAKPGREFVLRPGKNSTVDEANGTLVAAVDGQMSVDKRTIHVYPVYEVPGDLTMKHGNISFIGNVIIRGHVPDGFVVKAGGDIRVFGTVEGATLEAGGSIFVGAGIVGQNRGCIRAEGGLHTTFINQAKVEVGGDIEVVQSILHSTCTAGGKIICTRGKGNIVGGALSAEDHIYAKEIGNSMHTKTSLYIGAKEKWVTKEKQLAKEYKTTEEELKKLSLLLQKFQELEKENGLTANGRVQRLRVKNTLVQVKEKHEQIKEQLEDVQENLTLNQAGSIVVEQTLYPNVSAHFGKYRRKIVSNHSNVKLSLVDQEIQLSSRLEHHHHHH	not soluble
MSLGEAEARVVLNMNTGWAFHRGEVESGGQPGLDDSGWIAAIIPHIMQLEKKHCGGDIIYDGVGWYRRTFRVPSQYKDKQIKISFEGVMNACEVYLNGQKISAHRGGYVGFVTDITTRINWDRDNLLAVRVSAEYDPLTPPGKPQAGMDFYYYSGIYRDVEMVISDPLHITHALEEEEVAGGGIFVTYPVVGKEKAVTHVKAHVRNEGKRKRKAQLRTQLIDKSGKIVACQLTPFRLSAGEAIHLEQNLEIVHPSLWHPYDPNLYTLQNEIVENGKVVDCHTESIGIRTIAYTRDGGFYINGESLYLRGANRHQAFAHIGDAAANSMQERDVIDLKRGGCNAVRAAHYPQDPAFLAACDKYGLLVVECIPGWQYFKNDSTFISRLYEVGKQMIRRDRNHPSVILWETALNESRYPAEIARNLYAIAHIEYPGDQMYTAGDYFGHADRVDCFDVFYKQVSRFPKDGDVMSNYPEDQIAVKPLFCREWGDGVGEKPRVSLMENEEEQLKQCRGRFLQLNGHGYFDWCMLDANPRMGGHFLWSYNDYARGAEQETMFCGIVDINRYPKFSYYMMQSMRDKEISQPGLYDGPMVFIASQNTASRYVSSVNEITVFSNCDEVRLFRNHHLIGKQMRKERTPLYRSIVEKGGSPCYVFNAGTYEAGELVAEGIVDGKVVATHSVRTPEQPRQVKIWLKEENIQPVADGSDMIPVYFKVCDSNGTLVNTSDVRIHISVSGEGSLIGDGIERIGINPQLVEGGVGYALIRTTCRPGKIHISVTADGLRGDTREIVTRRYDGEGHHHHHH	not soluble
MSTKADNRHLYLKVIERIKEDIKNGIYTEKEKLPSEFELSKKLGVSRATLREALRILEEEHVIIRRHGVGTFVHSKPLFLSGIEQLNSVTKMIEQANMTPGTIFLSSQVLMPSEDDTKRFHLAEGQELFYLERVRTADGQPIVYCIDKIPMNILPNSFSHQQESMFDLLEKNSGSVISYAVTDIEPIGYHDTISPVLECDPETALLLLKQTHYDQHDKPVLYSLNYFRADKFRFHVLRKRF	not soluble
EDDEDYGDLGGCPFLVAENKTGYPTIVACKQDCNGTTETAPNGTRCFSIGDEGLRRMTANLPYDCPLGQCSNGDCIPKETYEVCYRRNWRDKKNHHHHHH	soluble
MYYVGIMSGTSLDGIDAVLVDFSGPSFSLLHTCYIPYDQSLRAALLGLNQAGENELHRAAILSNQLSGWYAQAVGRLLEKSGIDPGEIIAVGCHGQTIRHCPQPENGYSIQLVNGALLAELTGMTVVTDFRSRDIAAGGQGAPLVPAFHHEMFAHRDIHRLIINIGGITNITSLPVSGGVNGFDCGPGNMLMDAWCLKHTGMTYDHNGSWAESGRVINPLLENLLNFPYFSLPPPKSTGREMFSLDWLQPCLRGDEATQDVQSTLLQLTVRTITDSVETYYPAVRELYLCGGGAHNGTLVTRLQQQLPGRRINLTDALGIEADWVEACAFAWLARQSIERAPGNLPAVTGATGSRTLGAIYPA	not soluble
MRQHRPALELSRLPELLSRIDGYKGQPVTRLAVMLNLLVFIRSSELRYARWSEIDIDNSMWTIPAEREPLPGVKFSHRGSKMRTPHLVPLSKQVVAILAELQTWAGENGLIFTGAHDPRKPISENTVNKALRVMGYDTTQEVCGHGFRAMACSALIESGLWSRDAVERQMSHQELEHHHHHH	not soluble
RSPYDMEVIGQTIDDAAGEAFDKCAKVMGLGYPGGPIVNKLASEGNPDAFRFARPHVSGYDYSFSGLKTSFLYTLRDKLAEDPDFIEKNKADLCASLQHTVIDILMKKLRQAAKDHSIKQVALAGGVSANTGLRDAFHDHARRYGWTVFIPKFAYTTDNAAMVAISGYYKYLQGDFCPIDAVPFSRITV	not soluble
MPMVRNPMFLRMLGGLALALMLSAGRVATADTGTEAARAVVDKLNGALIDVMRNAKQLGYQGRYKKLDPIVREVFQFEAVAQIALGAHWKTLNDDQKREFVKKLTELSIATYAAQFNSYAGEQFQYDSDQAVKPDRVVVRYKMVAPKETPVKFDYMVNQFDGKWEIINIVVDGISDLALKKAQYTSVIDREGFDVLMSKLTQKITDYANNENNSKSLEHHHHHH	soluble
